Like-named read-outs stand apart in the source and are kept apart here. Blank lines part the entries; values can stand above or below the compound they belong to. Positions of bridges follow the written chain, without caps; N, C: chain ends. Non-standard residues stand in square brackets, D forms with d. Residues, ends and D or L forms follow the SMILES beside them. *: point of attachment. DOTA = O=C(O)CN1CCN(CC(=O)O)CCN(CC(=O)*)CCN(CC(=O)O)CC1; X1 = CN(CC(=O)O)C1(CCCCC(=O)*)CN(CC(=O)O)CCN(CC(=O)O)C1; dPhe(4-NHCONH2) = NC(=O)Nc1ccc(C[C@@H](N)C(=O)O)cc1; Phe(4-Cl) = N[C@@H](Cc1ccc(Cl)cc1)C(=O)O; 4Pal = N[C@@H](Cc1ccncc1)C(=O)O
Assays:
[1] = system: HEK293-SST2R cells; assay: Radioligand uptake/internalization in HEK293-SST2R cells; type: cell-based, human; conditions: 1 h at 37 °C, 0.5 pmol total peptide, specific, % of total added activity, mean ± sd, 3 independent experiments in triplicate
Description: This distinct cell distribution pattern between [^67Ga]Ga-DATA^5m-LM4 and [^67Ga]Ga-DOTA-TOC is consistent with an SST2R antagonist and agonist behavior, respectively. […] Cells were seeded in poly-lysine coated six-well plates (1 × 10^6/well) and grew to confluent monolayers overnight. At the day of the experiment, plates were placed on ice and rinsed twice with chilled internalization medium (DMEM Glutamax-I supplemented by 1% (v/v) FBS). […] In the upper three wells internalization medium was added (150 μL, total) and in the lower three a solution of TATE to a final concentration of 1 μM (150 μL, non-specific). After 60 min incubation at 37 °C, the medium was removed and cells were washed with ice-cold 0.5% BSA-PBS. Cells were incubated (2 × 5 min) at ambient temperature in acid wash buffer (50 mM glycine in 0.1 M NaCl, pH 2.8) and supernatants were collected (membrane-bound fraction). After rinsing with 0.5% BSA-PBS, the cells were lysed by treatment with 1 N NaOH; the lysates were collected (internalized fraction). Samples were measured in the γ-counter and cell-associated/internalized radioactivity vs. total added activity per well was calculated. Specific values were obtained by subtracting values in the presence of excess TATE (lower well triplicates) from those without the addition of blocker (upper well triplicates). […]

[2] = Biodistribution in SCID mice bearing twin HEK293-SST2R and wtHEK293 tumors; type: in vivo; conditions: male, mouse, iv, 10 pmol, total radioactivity
Description: Inocula containing a suspension of freshly-harvested HEK293-SST2R cells (150 μL, 1.2 × 10^7cells in normal saline) and wtHEK293 cells (150 μL, 0.6 × 10^7 cells in normal saline) were subcutaneously (sc) injected in the right and left flanks of male SCID mice (21.5–25.0 g body weight, six weeks of age on arrival day; NCSR “Demokritos” Animal House, Athens, Greece). Mice were kept under aseptic conditions for about 2 weeks until well-palpable tumors (300–600 mg) were grown at the inoculation sites. […] Samples of blood and tissues of interest were collected along with implanted tumors, weighted and counted in the gamma counter. Biodistribution results were calculated as percent of the injected activity per gram tissue (%IA/g) with the aid of appropriate standards of the administered dose and the Microsoft Excel program. Results are presented as mean %IA/g values ± sd, n = 4 per time point, as determined by the PRISM^TM 6.0 GraphPad software (San Diego, CA, USA). […]

[3] = system: SST2R; conditions: against the same radioligand; read-out: IC50, SST2R autoradiography; cited from earlier work
Text: On the other hand, by changing the metal to Lu the IC50 determined for [^natL ...

[4] = molecular target: T1, human SST2R (Homo sapiens, UniProt P30874); assay: Competition binding against [125I-Tyr25]LTT-SS28 in HEK293-SST2R cell membranes; conditions: HEK293-SST2R cell membrane homogenates; 1 h at 22 °C; 50 mM HEPES pH 7.4 binding buffer; mean ± sd, n = 3 independent experiments in triplicate; read-out: IC50, displacement of [125I-Tyr25]LTT-SS28 from SST2R binding sites
T1 construct: expressed in transfected cells
Description: The binding affinities of DATA^5m-LM4 and [^natGa]Ga-DATA^5m-LM4 for the human SST2R were determined via competition binding assays against [^125I-Tyr^25]LTT-SS28 in freshly harvested HEK293-SST2R cell membranes. As depicted in Figure 2, DATA^5m-LM4 as well as its [^natGa]Ga-tagged version displaced [^125I-Tyr^25]LTT-SS28 from SST2R-binding sites in the membrane homogenates in a monophasic and dose-dependent manner.
Competition binding assays for DATA^5m-LM4 and [^natGa]Ga-DATA^5m-LM4 were performed in freshly harvested HEK293-SST2R cell membranes against [^125I-Tyr^25]LTT-SS28 [30, 33]. […] Filters were collected and their activity measured in a γ-counter (automated multi-sample well-type instrument with a NaI(Tl) 3″ crystal, Canberra Packard Cobra^TM Quantum U5003/1, Auto-Gamma® counting system). The half-maximal inhibitory concentration (IC50) values were calculated by nonlinear regression for a one-site model applying the PRISM^TM 6.0 GraphPad software (San Diego, CA, USA) and represent mean IC50 ± sd values from at least three independent experiments were performed in triplicate.

T1 sequence (P30874 whole entry): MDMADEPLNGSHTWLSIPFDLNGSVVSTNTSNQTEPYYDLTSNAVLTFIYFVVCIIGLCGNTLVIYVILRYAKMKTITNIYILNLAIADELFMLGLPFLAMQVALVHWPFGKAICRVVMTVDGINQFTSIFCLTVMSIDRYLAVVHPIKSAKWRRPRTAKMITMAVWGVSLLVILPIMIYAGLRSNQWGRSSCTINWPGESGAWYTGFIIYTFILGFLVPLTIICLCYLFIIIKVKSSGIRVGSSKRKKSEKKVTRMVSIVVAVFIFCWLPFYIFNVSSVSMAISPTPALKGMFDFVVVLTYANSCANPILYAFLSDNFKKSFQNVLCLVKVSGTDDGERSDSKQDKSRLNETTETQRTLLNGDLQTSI

Compound: C[C@@H](O)[C@@H]1NC(=O)[C@H](CCCCN)NC(=O)[C@@H](Cc2ccc(NC(N)=O)cc2)NC(=O)[C@H](Cc2ccc(O)cc2)NC(=O)[C@H](NC(=O)[C@H](Cc2ccc(Cl)cc2)NC(=O)CN2CCN(CC(=O)O)CCN(CC(=O)O)CCN(CC(=O)O)CC2)CSSC[C@@H](C(=O)N[C@H](Cc2ccc(O)cc2)C(N)=O)NC1=O [[^67Ga]Ga-DOTA-LM3, metal not drawn] ({DOTA}-[Phe(4-Cl)][dC]Y[dPhe(4-NHCONH2)]KTC[dY]-NH2; disulfide 2-7)
total cell uptake (membrane bound + internalized) [1]: 2.51 ± 0.36%
tissue uptake at 1 h ([2]; HEK293-SST2R tumor (Tu+), 1 h pi, iv 10 pmol total peptide, mean ± sd, n = 4, read-out: Tu+ (HEK293-SST2R tumor) uptake): 25.3 ± 6.23 %ID/g
tissue uptake at 4 h ([2]; HEK293-SST2R tumor (Tu+), 4 h pi, iv 10 pmol total peptide, mean ± sd, n = 4, read-out: Tu+ (HEK293-SST2R tumor) uptake): 16.8 ± 1.22 %ID/g
tissue uptake at 1 h ([2]; in vivo, Blood uptake): 1.18 ± 0.03 %ID/g
tissue uptake at 4 h ([2]; in vivo, Blood uptake): 1.73 ± 0.47 %ID/g
tissue uptake at 1 h ([2]; in vivo, Femur uptake): 1.39 ± 0.39 %ID/g
tissue uptake at 4 h ([2]; in vivo, Femur uptake): 0.67 ± 0.14 %ID/g
tissue uptake at 1 h ([2]; in vivo, Heart uptake): 1.54 ± 0.78 %ID/g
tissue uptake at 4 h ([2]; in vivo, Heart uptake): 0.66 ± 0.14 %ID/g
tissue uptake at 1 h ([2]; in vivo, Intestines uptake): 1.26 ± 0.52 %ID/g
tissue uptake at 4 h ([2]; in vivo, Intestines uptake): 1.41 ± 0.37 %ID/g
tissue uptake at 1 h ([2]; in vivo, Kidneys uptake): 36 ± 5.96 %ID/g
tissue uptake at 4 h ([2]; in vivo, Kidneys uptake): 37.6 ± 3.44 %ID/g
tissue uptake at 1 h ([2]; in vivo, Liver uptake): 1.82 ± 0.63 %ID/g
tissue uptake at 4 h ([2]; in vivo, Liver uptake): 1.43 ± 0.19 %ID/g
tissue uptake at 1 h ([2]; in vivo, Lungs uptake): 3 ± 0.77 %ID/g
tissue uptake at 4 h ([2]; in vivo, Lungs uptake): 1.21 ± 0.24 %ID/g
tissue uptake at 1 h ([2]; in vivo, Muscle uptake): 0.56 ± 0.22 %ID/g
tissue uptake at 4 h ([2]; in vivo, Muscle uptake): 0.25 ± 0.06 %ID/g
tissue uptake at 1 h ([2]; in vivo, Pancreas uptake): 1.49 ± 0.71 %ID/g
tissue uptake at 4 h ([2]; in vivo, Pancreas uptake): 1.24 ± 0.44 %ID/g
tissue uptake at 1 h ([2]; in vivo, Spleen uptake): 1.73 ± 0.85 %ID/g
tissue uptake at 4 h ([2]; in vivo, Spleen uptake): 1.06 ± 0.25 %ID/g
tissue uptake at 1 h ([2]; in vivo, Stomach uptake): 0.8 ± 0.17 %ID/g
tissue uptake at 4 h ([2]; in vivo, Stomach uptake): 0.5 ± 0.08 %ID/g
tissue uptake at 1 h ([2]; wtHEK293 tumor (Tu-), 1 h pi, iv 10 pmol total peptide, mean ± sd, n = 4, read-out: Tu- (wtHEK293 tumor) uptake): 1.45 ± 0.27 %ID/g
tissue uptake at 4 h ([2]; wtHEK293 tumor (Tu-), 4 h pi, iv 10 pmol total peptide, mean ± sd, n = 4, read-out: Tu- (wtHEK293 tumor) uptake): 1.13 ± 0.31 %ID/g

Compound: DOTA-DPhe-c[DCys-Tyr-DAph(Cbm)-Lys-Thr-Cys]-DTyr-NH2 (disulfide) [DOTA-LM3, DOTA-derivatized SST2R antagonist LM3]
IC50 [3]: 1.4 ± 0.5 nM

IC50 [4]: 1.24 ± 0.2 nM
Compound: C[C@@H](O)[C@@H]1NC(=O)[C@H](CCCCN)NC(=O)[C@@H](Cc2ccc(NC(N)=O)cc2)NC(=O)[C@H](Cc2ccncc2)NC(=O)[C@H](NC(=O)[C@H](Cc2ccc(Cl)cc2)NC(=O)CCCCC2(N(C)CC(=O)O)CN(CC(=O)O)CCN(CC(=O)O)C2)CSSC[C@@H](C(=O)N[C@H](Cc2ccc(O)cc2)C(N)=O)NC1=O [DATA^5m-LM4] (X1-[Phe(4-Cl)][dC][4Pal][dPhe(4-NHCONH2)]KTC[dY]-NH2; disulfide 2-7)

IC50 [4]: 1.61 ± 0.32 nM
Compound: [^natGa]Ga-DATA^5m-LM4: DATA5m-LM4 tagged with natural gallium (DATA5m-[Phe(4-Cl)][dC][4Pal][dPhe(4-NHCONH2)]KTC[dY]-NH2; disulfide 2-7; also: complexed with natural gallium)
